Data as given in the supplement of paper PMC9732359.
± gives the uncertainty stated by the source.

Experiment: protein stability index of a GFP-peptide fusion (yeast GPS) (PSI 1-4); higher = more stable; sorted into four equal gates, so the index is relative within each strain
How it was run: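 Sequencing reads from sorted gates were used to score each peptide. The library consisted of tiled 17-residue yeast protein peptides fused downstream of GFP on a Cherry-expressing plasmid, pooled and carried in yeast. Mid-log cultures in leucine-free medium were split into four equal gates by GFP/Cherry ratio, and each gate's plasmids were PCR-amplified and Illumina-sequenced. The protein stability index adds up, over all gates, the read frequency multiplied by the gate number.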

Sequence | protein stability index (doa10∆) | protein stability index (pdr5∆) | protein stability index (san1∆) | protein stability index (ubr1∆)
ITPMNDDQCMLITTYSK [SIN4] | 1.93 ± 0.064 | 2.41 ± 0.075 | 1.98 ± 0.22 | 1.99 ± 0.038
RFYELEESLTVLNCLRT [YJR042W/NUP85] | 2 ± 0.14 | 2.25 ± 0.12 | 1.7 ± 0.29 | 2.62 ± 0.11
LNRLLRLIVDPNIADYI [PRP8] | 1.83 ± 0.057 | 1.93 ± 0.05 | 1.64 ± 0.091 | 1.95 ± 0.044
CRLFFTELASKDNAIYN [YCS4] | 1.3 ± 0.077 | 1.51 ± 0.055 | 1.1 ± 0.16 | 1.32 ± 0.047
SVIQLCGGINDSIPYPQ [ECM29] | 3.16 ± 0.17 | 2.59 ± 0.23 | 2.57 ± 0.13 | 2.88 ± 0.078
GNLSGKRVDFSGRTVIS [RPO31] | 3 ± 0.073 | 3.01 ± 0.081 | 3.36 ± 0.073 | 3.17 ± 0.089
KNDSLEKTINDLQRTQT [YIL149C/MLP2] | 2.97 ± 0.074 | 3.02 ± 0.063 | 2.82 ± 0.059 | 2.89 ± 0.046
RRDDEVLVVRGSKKGQE [RPL26A] | 3.63 ± 0.087 | 3.36 ± 0.089 | 3.59 ± 0.079 | 3.57 ± 0.085
SLVKYPELLDSLAILGM [SWI1] | 1.89 ± 0.06 | 2.31 ± 0.054 | 1.99 ± 0.075 | 2.16 ± 0.051
FESSSSLPFLLRHMPLA [SSN2] | 2.17 ± 0.16 | 1.61 ± 0.17 | 2.76 ± 0.18 | 1.48 ± 0.11
TISEKEQDILDLIAEQV [SSN2] | 3.08 ± 0.14 | 3.25 ± 0.15 | 3.05 ± 0.12 | 2.97 ± 0.13
IAFDDLIENKIQNKKIQ [RPN8] | 2.54 ± 0.07 | 2.25 ± 0.081 | 2.57 ± 0.066 | 2.71 ± 0.05
DRLILDLKLPPMDAYLK [SNU114] | 3.5 ± 0.14 | 3.34 ± 0.11 | 3.01 ± 0.063 | 3.17 ± 0.063
VDPIQSVKGKVVIDAFR [RPN11] | 2.59 ± 0.072 | 2.65 ± 0.092 | 2.1 ± 0.093 | 2.26 ± 0.081
GASVISLTKDKSIRKDT [SIR4] | 3 ± 0.065 | 3.23 ± 0.055 | 3.06 ± 0.076 | 3.13 ± 0.072
PGYVDIVKTSSGNEMPP [RPS19A] | 2.67 ± 0.19 | 2.86 ± 0.11 | 2.84 ± 0.11 | 3.11 ± 0.088
SFLDPLNYGNICEPKET [YJL039C/NUP192] | 3.33 ± 0.12 | 2.81 ± 0.085 | 3.01 ± 0.095 | 2.66 ± 0.093
KIITSRPLQKIMLLQLE [SIN4] | 2.12 ± 0.06 | 2.08 ± 0.052 | 2 ± 0.071 | 1.63 ± 0.044
GWYHSGPKLRASDLKIN [RPN8] | 1.57 ± 0.036 | 1.95 ± 0.035 | 1.59 ± 0.058 | 2.06 ± 0.035
EVVSEAINIMNRSNDAL [FAS2] | 3.32 ± 0.12 | 3.44 ± 0.13 | 3.44 ± 0.049 | 3.31 ± 0.16
QPKAPRAPKVIHGQDFQ [ISW2] | 2.88 ± 0.089 | 3.02 ± 0.097 | 2.94 ± 0.05 | 3.19 ± 0.058
TKRWYKNAGLGFKTPKT [RPS11A] | 3.32 ± 0.096 | 3.42 ± 0.12 | 3.05 ± 0.11 | 3.5 ± 0.082
MSGFSLSEYLTKFQTTD [YCS4] | – | – | – | 2.9 ± 0.14
PSDWQRNSFIRDMIMKR [ITC1] | 3.01 ± 0.072 | 3.03 ± 0.073 | 3.21 ± 0.055 | 2.89 ± 0.047
ENDNLDNVSKNALDKLR [YCG1] | 3.29 ± 0.099 | 3.15 ± 0.16 | 3.08 ± 0.08 | 3.26 ± 0.1
ASRHGQKGTIGITYRRE [RPB2] | 2.53 ± 0.08 | 1.84 ± 0.051 | 2.39 ± 0.082 | 2.22 ± 0.051

Sequence | protein stability index (doa10∆) | protein stability index (pdr5∆) | protein stability index (san1∆) | protein stability index (ubr1∆)
GQSTILVGSEIYEKLKN [CDC53] | 2.67 ± 0.14 | 3.12 ± 0.15 | 1.36 ± 0.21 | 1.96 ± 0.077
PLKYTKLIAAAEDGSRS [SNF6] | 1.3 ± 0.23 | 1.49 ± 0.11 | 1.19 ± 0.21 | 1.57 ± 0.18
NPVALEQKLVDLLKFEN [BRR2] | 2.94 ± 0.17 | 3.23 ± 0.11 | 2.3 ± 0.12 | 2.47 ± 0.12
ANTSNNLFGATANANKP [YJL041W/NSP1] | 3.32 ± 0.066 | 3.27 ± 0.044 | 3.24 ± 0.043 | 3.22 ± 0.045
GGLGLNLQTADTVIIFD [SNF2] | 3.18 ± 0.12 | 3.22 ± 0.1 | 3.34 ± 0.13 | 3.38 ± 0.07
FSFGKSDAAKEPPGSNT [YOR098C/NUP1] | – | 3.58 ± 0.16 | 2.84 ± 0.13 | 2.68 ± 0.2
TFLVSNDDEVSQFCYVS [RPN14] | 2 ± 0.13 | 2.55 ± 0.23 | 2.28 ± 0.13 | –
TGGTRTKTPGPGGQAAL [RPS14A] | 3.24 ± 0.04 | 3.11 ± 0.036 | 3.05 ± 0.034 | 3.149 ± 0.028
NNNNTIDESMPDTAIDS [GRR1] | 2.78 ± 0.061 | 3.02 ± 0.052 | 2.81 ± 0.061 | 3 ± 0.044
MKNENANPKKLALMTAH [CDC53] | 2.12 ± 0.039 | 2.33 ± 0.046 | 2.09 ± 0.048 | 1.79 ± 0.032
IRTILVNIHHLLNEYRP [MED7] | 2.21 ± 0.064 | 2 ± 0.065 | 1.65 ± 0.12 | 1.58 ± 0.053
RAVLTPLITRHCYPRQL [RRP46] | 2.4 ± 0.048 | 2.18 ± 0.037 | 2.36 ± 0.052 | 2.39 ± 0.033
EVRQETQPKAEATQDDD [NUT1] | 3.08 ± 0.13 | 3.18 ± 0.071 | 3.4 ± 0.065 | 3.16 ± 0.074
CQLQNSDNSEEEEVDID [RRP43] | 3.2 ± 0.077 | 3.22 ± 0.065 | 3.02 ± 0.08 | 3.13 ± 0.056
KTTITRVEPETFEIPQA [SWI3] | 2.38 ± 0.066 | 2.81 ± 0.081 | 2.84 ± 0.072 | 2.38 ± 0.054
SSENNQIILAYIKYNIL [SRP68] | 3.06 ± 0.065 | 2.82 ± 0.074 | 2.92 ± 0.076 | 2.88 ± 0.062
LKDLMDLCDVVESKFTE [RPC19] | 3.61 ± 0.2 | 3.5 ± 0.11 | 3.27 ± 0.11 | 3.26 ± 0.12
PLLVPGMTPCTVSPDFV [FAS1] | 1.64 ± 0.096 | 2.38 ± 0.055 | 1.98 ± 0.11 | 1.64 ± 0.065
SKKRKLVADGVFYAELN [RPS3] | 2.82 ± 0.24 | 1.84 ± 0.19 | 1.55 ± 0.13 | –
VEIIDQKKVLIDGPKAG [RPL14A] | 2.8 ± 0.18 | 2.65 ± 0.09 | 2.91 ± 0.076 | 2.72 ± 0.065
ALPHVEINQVSLALVIR [RGR1] | 1.91 ± 0.12 | 3 ± 0.22 | 2.24 ± 0.13 | 2.71 ± 0.086
TEFSKNDLEVGVATKDK [SCL1] | 2.95 ± 0.079 | 3.03 ± 0.068 | 2.63 ± 0.088 | 2.71 ± 0.075
LPLTEHKSPNLSLMLES [SRB4] | 2.43 ± 0.066 | 3.18 ± 0.06 | 2.39 ± 0.11 | 2.75 ± 0.06
SRGIVIGSGAMSPLECR [RPP1] | 1.69 ± 0.031 | 2.34 ± 0.048 | 2.12 ± 0.069 | 2.44 ± 0.036
EIMQQKFPATNVTTILD [ECM29] | 2.41 ± 0.061 | 2.47 ± 0.055 | 2.19 ± 0.063 | 2.45 ± 0.057
NLAPKLRNVFLGKCSRI [GRR1] | 2.7 ± 0.048 | 2.43 ± 0.049 | 2.58 ± 0.041 | 2.29 ± 0.049
